Source: the nanobody polyreactivity screen of Harvey et al. (2022)

Experiment: yeast display, Sf9 membrane polyspecificity reagent, FACS + sequencing; frameworks hold sequencing errors
Outline: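 Genes from sorted yeast were amplified by colony PCR, read by MiSeq 2 × 250 sequencing and filtered on CDR length. These cells carried a synthetic nanobody library in Saccharomyces cerevisiae BJ5465 and were sorted by FACS into low and high (top ~1%) gates on anti-HA and streptavidin fluorescence. Polyreactivity is labelled according to the gate of origin.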

| Sequence | polyreactivity (PSR sort gate) |
| --- | --- |
| QVQLVESGGGLVQAGGSLRLSCAASGFIFQTNVMGGYRQAPGKERELVAAISSGYSTYYADSVKGRFTISRDNAKNTVYLQMNSLKPEDTAVYNCAADVLGTTTTVGGFNYWGQGTQVTVSS | low polyreactivity |
| QVQLVESGGGLVQAGGSLRLSCAASGFIFQYYAMGWYRQAPGKERELVAAISFSGGSTYYADSVKGRFTISRANAKNTVYLPMNSLKPEDTAVYYCAAEVYSGGDYSGHDYYWGQGTQVTVSS | low polyreactivity |
| QVQLVESGGGLVQAGGSLRLSCAASGFIFQYYSMGWYRQAPGKERELVATITSRGGSTYYADSVKGRFTISRDNAKNTVYLQMNSLKPEDTAFYYCNARSSSPRKYGYWGQGTQVTVSS | high polyreactivity |
| QVQLVESGGGLVQAGGSLRLSCAASGFIFRAYAMGWYRQAPGKERELVAAISYSGGSTYYADSVKGRFTISRDNAKNTVYLQMNSLKPEDTAVYYCAALTIRVGSLGRDYWGQGTQVTVSS | low polyreactivity |
| QVQLVESGGGLVQAGGSLRLSCAASGFIFRDNAMGWYRQAPGKERELVAAISERGGRTYYADSVKGRFTISRDNAKNTVYLQMNSLKPEDTAVYYCAAEDIANFYYWGQGTQVTVSS | high polyreactivity |
| QVQLVESGGGLVQAGGSLRLSCAASGFIFRDYEMGWYRQAPGKERELVAAISWRGGTYYADSVKGRFTISRDNAKNTVYLQMNSLKPEDTAGYYCNATRYRLRPSGVRYKYNYWGQGTQVTVSS | low polyreactivity |
| QVQLVESGGGLVQAGGSLRLSCAASGFIFRFNAMGWYRQAPGKERELVAAITYRGITYYADSVKGRFTISRDNAKNTVYLQMNSLKPEDTAVYYCAKRTSARGLYGVYFGRYEYWGQGTQVTVSS | high polyreactivity |
| QVQLVESGGGLVQAGGSLRLSCAASGFIFRFYAMGWYRQAPGKEREVVAVISRSGGSTYYADSVKGRFTISRDHAKNTVYLQMNSLKPEDTAVYYCAATFYWDSVRRGDYDYWGQGTQVTGSS | high polyreactivity |
| QVQLVESGGGLVQAGGSLRLSCAASGFIFRGNARGWYRQAPGKERELVAAISVRGGRTYYADSVKGRFTISRDNAKNTVYLQMNSLKPEDTAVYDCAADLYNRGRGSSQSYRTGYDYWGQGTQVTVSS | high polyreactivity |
| QVQLVESGGGLVQAGGSLRLSCAASGFIFRGYAMGWYRQAPGKERELVAVISRSGTSTYYADSVKGRFTISRDNAKNTVYLQMNSLKPEDTAVYYCAKEVWPRYIRQAYLSGYESWGQGTQVTVSS | high polyreactivity |
| QVQLVESGGGLVQAGGSLRLSCAASGFIFRHNAMGWYRPAPGTEREFVAAISISGGSTYYADSVKGRFTISRDNAKNTVYLQMNSLKPEDTAVYYCNARSLGNTYLLYDYWGQGTQVTVSS | low polyreactivity |
| QVQLVESGGGLVQAGGSLRLSCAASGFIFRKYAMGWYRQAPGKERELVAAITSSGGSTYYADSVKGRFTISRDNAKNTVYLQMNSLKPEDTAVYYCAARLKQSGHDYWGQGTQVTVSS | high polyreactivity |
| QVQLVESGGGLVQAGGSLRLSCAASGFIFRKYGMGWYRQAPGKERELVAAIRFTGGSTRYADSVKGRFTISRDNAKNTVYLQMNSLKPEDTAVYYCNADRVYVRGRFTYDYWGQGTQVTVSS | low polyreactivity |
| QVQLVESGGGLVQAGGSLRLSCAASGFIFRNYAMGWNTQAPGKERELVAAISRSVGRTYYADSVKGRFTISRDNAKNTVYLQMNSLKPEDPAVYYCAVHIYGIGFYFTYLYVNGYDYWGQGTQVTVSS | high polyreactivity |
| QVQLVESGGGLVQAGGSLRLSCAASGFIFRNYAMGWYRQAPGKERELVAAISRGGRTNYADSVKGLFTISRDNAKNTVYLQMNSLKPEDTAVYYCNAVTVGLYDYWGQVTQVTVSS | high polyreactivity |
| QVQLVESGGGLVQAGGSLRLSCAASGFIFRQYAMGWYRQAPGKERELVAAISRSGGSTYYADSVKGRFTISRDNAKNTVYLQMNSLKPEDTAVYYCAVRYNQWYLNFGRYDYWGQGTQVTVSS | high polyreactivity |
| QVQLVESGGGLVQAGGSLRLSCAASGFIFRRNAMGWYRPAPGKERELVAAITKSGGSTYYADSVKGRFTISRDNAKNTVYLQMNSLKPEDTAVYYCAAPYSAKELYYRMDYWGQGTQVTVSS | high polyreactivity |
| QVQLVESGGGLVQAGGSLRLSCAASGFIFRRYAMGWYRQAPGKERELVAAITAGGGNTYYADSVKGRFTISRDNAKNTVYLQMHSLKPEDTAVYYCAAAGRWYYHGYNYWGQGTQVTVSS | high polyreactivity |
| QVQLVESGGGLVQAGGSLRLSCAASGFIFRRYAMGWYRQAPGKERELVASISWSGGSTYYADSVKGRFTISRDNAKNTVYLQMNSLKPEDTAVYYCAKGGYYSRYYSYGYWGQGTQVTVSS | high polyreactivity |
| QVQLVESGGGLVQAGGSLRLSCAASGFIFRRYSMGRYRQAPAKERELVAASTSGGGRTYYADSVKGRFTISRDNAKNTVYLQMNSLKPEDTAVYYCARVQRGDYDYWGQGTQVTVSS | high polyreactivity |

| Sequence | polyreactivity (PSR sort gate) |
| --- | --- |
| QVQLVESGGGLVQAGGSLRLSCAASGFIFRRYVMGWYRQAPGKERELVAAISTSGGSTYYADSVKGRFTISRDNAKNSVYLQMNSLKPADTAVYYCNKAVGVTGFDYWGQGTEVTVSS | high polyreactivity |
| QVQLVESGGGLVQAGGSLRLSCAASGFIFRSYAMGWYRQAPGKERELVAAISSSGGRTYYADSVKGRFTISRDNAKNTVYLQMNSLKPEDTAVYYCATSLYTDNSWDNYWGQGTQVTVSS | high polyreactivity |
| QVQLVESGGGLVQAGGSLRLSCAASGFIFRTNAMGRYRQAPGKEREFVAAIRWSGGSTYYADSVKGRFTISRDNAKKTVYLQMNSLKPEDTAVYYCAAEIYLSTYFYPHSIYDYWGQGTQVTVSS | high polyreactivity |
| QVQLVESGGGLVQAGGSLRLSCAASGFIFRTYAMGWYRQAPGKERDLVAAISWRGGSTYYADSVKGRFTISRDNAKNTVYLQMNSLKPEDTAVYYCAKDTTRGVYRSWPKDMDYWGQGTQVTVSS | low polyreactivity |
| QVQLVESGGGLVQAGGSLRLSCAASGFIFRVYAMGWYRQAPGKERELVAAITRNGGSTYYADSVKGRFTISRDNAKNTVYLQMNSLKPEDTAVYYCATVYSFGQNRDYWGQGTQVTVSS | high polyreactivity |
| QVQLVESGGGLVQAGGSLRLSCAASGFIFRWYAMGWYRQAPGKERELVAAISRSGDSTYYADSVKGRFTISRDNAKNTVYLQMNSLKPEDTAVYYCAADDRYYTYGYDYWGQGTQVTVSS | low polyreactivity |
| QVQLVESGGGLVQAGGSLRLSCAASGFIFRYNAMGWYRQAPGKERELVAVITSGGRTYYADSVKGRFTISRDNAKNTVYLQMNSLKPEDTAVYYCNADSRHRRNYDYWGQGTQVTVSS | high polyreactivity |
| QVQLVESGGGLVQAGGSLRLSCAASGFIFRYYAMGWSRQAPGIEMELVAAINASGGRTYYADSVKGRFTISRDNARNTVYLQMNSLKPEDTAVYYCAAYRSYQTFDYWGQGTQVTVSS | high polyreactivity |
| QVQLVESGGGLVQAGGSLRLSCAASGFIFRYYAMGWSRQAPGKERELVAAITSGGRTSYADSVKGRFTISRDNAKNTVYLQMNSLKPEDTAVYYCAKDSYRQRYGSMEYWGQGTQVTVSS | high polyreactivity |
| QVQLVESGGGLVQAGGSLRLSCAASGFIFRYYAMGWYRQAPGKERELVAAIRGNSGNTYYADSVKGRFTISRDNAKNTVYLQMNSLKPEDTAVYYCAKPFNIWGQGTQVTVSS | high polyreactivity |
| QVQLVESGGGLVQAGGSLRLSCAASGFIFRYYAMGWYRQAPGKERELVAAISKRGGRTYYADSVKGRFTISRDNAKNTVYLQMNSLKPEDTAVYYCAAGVGTVAPDMDYWGQGTQVTVSS | high polyreactivity |
| QVQLVESGGGLVQAGGSLRLSCAASGFIFRYYAMGWYRQAPGKERELVAAISRIGGSSYYADSVKGRFTISRDNAKNTVYLQMNSPKPEVTAVYYCAVAEGYYPAYLRDYWGQGTQVTVSS | high polyreactivity |
| QVQLVESGGGLVQAGGSLRLSCAASGFIFRYYAMGWYRQAPGKERELVAAISSRGSTYYADSVKGRFTISRDNAKNTVYLQMNRLKPEYTALYYCAARGGYRLRYIPYVRYDYWGQGTQLTVSS | high polyreactivity |
| QVQLVESGGGLVQAGGSLRLSCAASGFIFRYYAMGWYRQAPGKERELVAAISWRGGTTYYADSVKGRFTFSRDNAKNTVYLQMNSLKPDDTAVYYCAADWQWDLGPYIYQVEYWGQGTQVTVSS | high polyreactivity |
| QVQLVESGGGLVQAGGSLRLSCAASGFIFRYYAMGWYRQAPGKERELVAAISWSGGSTYYADSVKGRFTISRDNAKNTVYLQMNSLKPEDTAVYYCNARYKYLFTVSRYDYWGQGTQVTVSS | high polyreactivity |
| QVQLVESGGGLVQAGGSLRLSCAASGFIFRYYAMGWYRQAPGKERELVADISWSGGSTHYADSVKGRFTISRDNAKNTVYLQMNSQKPEDTAVYYCAADPTLYSSWSTYYRSNYWGQGTQVTVSS | high polyreactivity |
| QVQLVESGGGLVQAGGSLRLSCAASGFIFRYYAMGWYRQAPGKERELVATISSGGGTHYADSVKGRFTISRDNAKNTVYLQMNSLKPEDTAVYYCNARGYRRLRTRVDYWGQGTQVTVSS | high polyreactivity |
| QVQLVESGGGLVQAGGSLRLSCAASGFIFRYYTMGWYRQAPGKERELVAAISSGTSTHYADSVKGRYTISRNNAKNTVNLQMNSLKPEDTAVYYCAADLPYWYNRKPIFPYYYWGQGTQVTVSS | high polyreactivity |
| QVQLVESGGGLVQAGGSLRLSCAASGFIFSFNAMGWYRQAPGKERELVAAISRRGGRTYYADSVKGRFTISRDNAKNTVYLQMNSLKPEDTAVYYCAAQGRDSTPHGYWGQGTQVTVSS | high polyreactivity |
| QVQLVESGGGLVQAGGSLRLSCAASGFIFSHYAMGWYRQAPGKERELVAAISRNGGSTYYADSVKGRFTISRDNAKNTVYLQMNSLKPEDTAVYYCAVDVSEWYHYDLYYWYYYWGQGTQVTVSS | high polyreactivity |
